Source: US20230338465A1 (VITRUVIAE, published 2023)
Values joined by “and” are separate entries in the source; they are usually repeats but may differ in a detail not shown here. Equal values may be shown once. Read-outs that look alike come from different tables or passages of the source.

T1: Zika Virus Envelope Protein (Zika virus)
T1 chain: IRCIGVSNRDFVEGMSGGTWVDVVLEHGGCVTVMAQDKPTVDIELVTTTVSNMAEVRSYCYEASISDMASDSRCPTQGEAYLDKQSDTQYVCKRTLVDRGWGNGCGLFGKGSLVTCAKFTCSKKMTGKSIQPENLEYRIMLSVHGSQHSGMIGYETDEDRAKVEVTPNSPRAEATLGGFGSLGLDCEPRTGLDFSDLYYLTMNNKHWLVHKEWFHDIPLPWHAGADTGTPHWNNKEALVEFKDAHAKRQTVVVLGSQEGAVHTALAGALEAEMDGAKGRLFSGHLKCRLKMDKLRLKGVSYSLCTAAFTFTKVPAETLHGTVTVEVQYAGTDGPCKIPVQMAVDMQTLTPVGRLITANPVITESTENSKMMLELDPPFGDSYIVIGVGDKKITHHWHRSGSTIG


Assays:
Assay in all cases: ELISA, 2.5 mM CaCl2
Chikungunya Virus E1 = Chikungunya Virus E1 (Chikungunya virus)
[1] = target: T1, Zika Virus Envelope Protein
[2] = target: T1, Zika Virus Envelope Protein

Row | Binder | EC50 (Chikungunya Virus E1) | EC50 [1] [nM] | EC50 [2] [µg/mL]
1 | VP025-CT (co-transfected product of genes TM-G4-A-DC and CT-G4-B-DC, heterodimer mixture) (Fc fusion, also called VP025-CT (heterodimer mixture)) chain 1: SVKVGGEAGPSVTLPCHYSGAVTSMCWNRGSCSLFTCQNGIVWTNGTHVTYRKDTRYKLLGDLSRRDVSLTIENTAVSDSGVYCCRVEHRGWFNDMKITVSLEIVGGGGSGGGGSGGGGSKYGPPCPPCPAPEAAGGPSVFLFPPKPKDTLMISRTPEVTCVVVDVSQEDPEVQFNWYVDGVEVHNAKTKPREEQFNSTYRVVSVLTVLHQDWLNGKEYKCAVSNKGLPSSIEKTISKCKGQPREPQVYTLPPSQEEMTKNQVSLTCLVKGFYPSDIAVEWESNGQPENNYKTTPPVLDSDGSFFLYSRLTVDKSRWQEGNVFSCSVMHEALHNHYTQKSLSLSLGK chain 2: ERLCHPCPWEWTFFQGNCYFMSNSQRNWHDSITACKEVGAQLVVIKSAEEQNFLQLQSSRSNRFTWMGLSDLNQEGTWQWVDGSPLLPSFKQYWNRGEPNNVGEEDCAEFSGNGWNDDKCNLAKFWICKKSAASCSGGGGSGGGGSGGGGSKYGPPCPPCPAPEAAGGPSVFLFPPKPKDTLMISRTPEVTCVVVDVSQEDPEVQFNWYVDGVEVHNAKTKPREEQFNSTYRVVSVLTVLHQDWLNGKEYKCAVSNKGLPSSIEKTISKCKGQPREPQVYTLPPSQEEMTKNQVSLTCLVKGFYPSDIAVEWESNGQPENNYKTTPPVLDSDGSFLLYSKLTVDKSRWQEGNVFSCSVMHEALHNHYTQKSLSLSLGK | 10.2 µg/mL and 122 nM | – | –
2 | VP020 (V-CTLD-1 with V-IGG4-ADC-B-Fc) (Fc fusion, also called CT-G4-B-DC; VIT-308) ERLCHPCPWEWTFFQGNCYFMSNSQRNWHDSITACKEVGAQLVVIKSAEEQNFLQLQSSRSNRFTWMGLSDLNQEGTWQWVDGSPLLPSFKQYWNRGEPNNVGEEDCAEFSGNGWNDDKCNLAKFWICKKSAASCSGGGGSGGGGSGGGGSKYGPPCPPCPAPEAAGGPSVFLFPPKPKDTLMISRTPEVTCVVVDVSQEDPEVQFNWYVDGVEVHNAKTKPREEQFNSTYRVVSVLTVLHQDWLNGKEYKCAVSNKGLPSSIEKTISKCKGQPREPQVYTLPPSQEEMTKNQVSLTCLVKGFYPSDIAVEWESNGQPENNYKTTPPVLDSDGSFLLYSKLTVDKSRWQEGNVFSCSVMHEALHNHYTQKSLSLSLGK | – | 85.1 | 7.4
3 | VP019-F2 (multimer fraction F2 of VP019, V-TIM1-1 with V-IGG4-ADC-A-Fc) (Fc fusion, also called TM-G4-A-DC; VIT-307) SVKVGGEAGPSVTLPCHYSGAVTSMCWNRGSCSLFTCQNGIVWTNGTHVTYRKDTRYKLLGDLSRRDVSLTIENTAVSDSGVYCCRVEHRGWFNDMKITVSLEIVGGGGSGGGGSGGGGSKYGPPCPPCPAPEAAGGPSVFLFPPKPKDTLMISRTPEVTCVVVDVSQEDPEVQFNWYVDGVEVHNAKTKPREEQFNSTYRVVSVLTVLHQDWLNGKEYKCAVSNKGLPSSIEKTISKCKGQPREPQVYTLPPSQEEMTKNQVSLTCLVKGFYPSDIAVEWESNGQPENNYKTTPPVLDSDGSFFLYSRLTVDKSRWQEGNVFSCSVMHEALHNHYTQKSLSLSLGK | – | 12.2 | 1
